Source: publication PMC10682184, “Molecular basis for the catalytic mechanism of human neutral sphingomyelinases 1 (hSMPD2)” (Nature Communications, 2023)

Molecular target: the molecule itself
Assay: cryo-EM structure; apo hSMPD2 at about 10 mg/mL in 25 mM Hepes pH 7.4, 150 mM NaCl, 2 mM Mg2+, 0.005% LMNG; final map refined with C2 symmetry

B1: human neutral sphingomyelinase 1 (hSMPD2), full length, wild type, twin-Strep tagged (enzyme, UniProt O60906 1-423, looked up)
chain: MKPNFSLRLRIFNLNCWGIPYLSKHRADRMRRLGDFLNQESFDLALLEEVWSEQDFQYLRQKLSPTYPAAHHFRSGIIGSGLCVFSKHPIQELTQHIYTLNGYPYMIHHGDWFSGKAVGLLVLHLSGMVLNAYVTHLHAEYNRQKDIYLAHRVAQAWELAQFIHHTSKKADVVLLCGDLNMHPEDLGCCLLKEWTGLHDAYLETRDFKGSEEGNTMVPKNCYVSQQELKPFPFGVRIDYVLYKAVSGFYISCKSFETTTGFDPHRGTPLSDHEALMATLFVRHSPPQQNPSSTHGPAERSPLMCVLKEAWTELGLGMAQARWWATFASYVIGLGLLLLALLCVLAAGGGAGEAAILLWTPSVGLVLWAGAFYLFHVQEVNGLYRAQAELQHVLGRAREAQDLGPEPQPALLLGQQEGDRTKEQ
notes: human SMPD2 (neutral sphingomyelinase 1), UniProt O60906, full length; cloned from human cDNA into pcDNA3.1(-); In the cryo-EM model the loop preceding TMH1 and residues 403-423 were disordered and not modelled; also called nSMase1; apo hSMPD2; source: HEK293F, transiently transfected, purified (membranes solubilised in LMNG, Strep-Tactin, size-exclusion chromatography)
stoichiometry N: 2
